Assay results taken from article PMC7905918, “20E-mediated regulation of BmKr-h1 by BmKRP promotes oocyte maturation”.

T1: BmKRP (Bombyx mori, UniProt A0A8R1WHU4 1-518)
T1 sequence: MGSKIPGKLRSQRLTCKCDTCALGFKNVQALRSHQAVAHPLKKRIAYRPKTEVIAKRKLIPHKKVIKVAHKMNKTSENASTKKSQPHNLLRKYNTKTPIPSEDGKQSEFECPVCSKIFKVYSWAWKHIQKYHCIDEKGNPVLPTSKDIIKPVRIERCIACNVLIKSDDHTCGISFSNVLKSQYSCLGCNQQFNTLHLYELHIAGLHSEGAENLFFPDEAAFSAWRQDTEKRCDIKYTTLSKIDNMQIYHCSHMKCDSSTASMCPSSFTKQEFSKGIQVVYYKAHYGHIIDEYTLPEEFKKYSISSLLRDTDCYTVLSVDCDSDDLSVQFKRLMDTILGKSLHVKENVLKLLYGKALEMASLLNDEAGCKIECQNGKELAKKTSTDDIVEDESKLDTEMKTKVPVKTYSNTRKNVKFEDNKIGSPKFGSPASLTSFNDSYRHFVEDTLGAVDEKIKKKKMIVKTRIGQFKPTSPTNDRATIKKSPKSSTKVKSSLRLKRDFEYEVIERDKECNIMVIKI

B1: -248~-217 mutant probe 4 (central … region mutated) (dsDNA)
DNA 1: TTATTAACCACGAATCCCCATAAATAATCATT
DNA 2: AATGATTATTTATGGGGATTCGTGGTTAATAA
B2: BmKr-h1 20E CRE -248~-217 WT probe (dsDNA)
DNA 1: TTATTAAAACATCCGAAAACGCAATAATCATT
DNA 2: AATGATTATTGCGTTTTCGGATGTTTTAATAA
B3: -248~-217 mutant probe 6 (left flank mutated) (dsDNA)
DNA 1: GGCGGCCCACATCCGAAAACGCAATAATCATT
DNA 2: AATGATTATTGCGTTTTCGGATGTGGGCCGCC
B4: -248~-217 mutant probe 7 (right flank mutated) (dsDNA)
DNA 1: TTATTAAAACATCCGAAAACGACCGCCGACGG
DNA 2: CCGTCGGCGGTCGTTTTCGGATGTTTTAATAA
B5: -248~-217 mutant probe 5 (both flanks mutated) (dsDNA)
DNA 1: GGCGGCCCACATCCGAAAACGACCGCCGACGG
DNA 2: CCGTCGGCGGTCGTTTTCGGATGTGGGCCGCC

Tests used:
Conditions in all cases: protein: ivt; label: 5' biotin; blunt
BmKRP [1] = molecular target: T1, BmKRP; assay: EMSA; EMSA: 1x binding buffer (LightShift kit), 2.5% glycerol, 0.05% NP-40, 50 mM KCl, 5 mM MgCl2, 4 mM EDTA, 1 ug poly dI-dC, 20 fmol probe, room temperature 20 min; pull-down: 10 mM HEPES pH 7.6, 100 mM K-glutamate, 80 mM KCl, 10 mM Mg acetate, 4 C
BmKRP [2] = molecular target: T1, BmKRP; assay: EMSA; competed by 50-fold unlabeled probe; EMSA: 1x binding buffer (LightShift kit), 2.5% glycerol, 0.05% NP-40, 50 mM KCl, 5 mM MgCl2, 4 mM EDTA, 1 ug poly dI-dC, 20 fmol probe, room temperature 20 min; pull-down: 10 mM HEPES pH 7.6, 100 mM K-glutamate, 80 mM KCl, 10 mM Mg acetate, 4 C
BmKRP [3] = molecular target: T1, BmKRP; assay: EMSA; Discussion calls it weaker (citing Fig. 3f); EMSA: 1x binding buffer (LightShift kit), 2.5% glycerol, 0.05% NP-40, 50 mM KCl, 5 mM MgCl2, 4 mM EDTA, 1 ug poly dI-dC, 20 fmol probe, room temperature 20 min; pull-down: 10 mM HEPES pH 7.6, 100 mM K-glutamate, 80 mM KCl, 10 mM Mg acetate, 4 C

| Binder | binding result (BmKRP [1]) | binding result (BmKRP [3]) | also measured |
| --- | --- | --- | --- |
| B1 | binds |  |  |
| B2 |  |  | binding result (BmKRP [2]): binds |
| B3 |  | binds |  |
| B4 |  | binds |  |
| B5 | no binding |  |  |
